The text below walks through data of publication PMC4823841.

The target in this assay is recombinant human renin (human) (UniProt P00797).
Sequence of UniProt P00797 (P00797 67-406): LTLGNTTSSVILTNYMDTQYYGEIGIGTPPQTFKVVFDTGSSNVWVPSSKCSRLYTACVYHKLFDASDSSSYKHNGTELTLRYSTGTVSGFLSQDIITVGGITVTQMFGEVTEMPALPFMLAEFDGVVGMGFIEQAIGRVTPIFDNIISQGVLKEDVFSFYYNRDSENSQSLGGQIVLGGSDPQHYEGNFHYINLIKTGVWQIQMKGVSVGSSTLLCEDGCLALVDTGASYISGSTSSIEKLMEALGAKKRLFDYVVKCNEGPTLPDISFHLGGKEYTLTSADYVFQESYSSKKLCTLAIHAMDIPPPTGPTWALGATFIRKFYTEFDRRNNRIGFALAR

As for “recombinant ovine angiotensinogen expressed in CHO cells (natural protein)”, the Km (steady-state kinetics of human renin, 25 pM, with 0-0.4 μM oANG at 37 °C, pH 7.2; angiotensin I generated, measured by ELISA; Hanes-Woolf plot) was 0.072 μM.
